# Measurements: a protein production outcome set (Wang et al. 2014)
# Experiment: label from the status in PepcDB records
# 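Note: failed if final PepcDB status was selected cloned or expressed and not failed if soluble or beyond.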
row,Sequence,protein production
1,MRRVLMVNFGVLLLFCFGVLSNSFGQDNGGDSDINSTTAVYIVTLRQASSLHLFQQEAEEVKRVRDQSKHGDTSKFTRPKLQPRNISRSRYWRSRRSAIAQAHDSLLRNALKGEKYIKLYSFHYLINGFAVFVSSQQAETLSRRREVANIVLDFSVRTATTYTPQFMGLPKGAWVKEGGYETAGEGIVIGFIDTGIDPTHPSFNGTDTSQRQYPIPNHFSGVCEVTPDFPSGSCNRKLVGARHFAQSAITRGIFNSSEDYASPFDGDGHGTHTASIAAGNHGVSAVVSGHNFGSASGIAPRAHISVYKALYKSFGGFAADVVAAIDQAAQDGVDILSLSITPNRRPPGVATFFNPLDMAMLSAVKAGIFVVQAAGNTGPSPKSMSSFSPWIFTVGAASHDRDYSNSIVLGNNVSIPGVGLALRTDEGKKYTMISALDALKNKSSVVDKDMYVGECQDYGSFDKDVIRGNLLICSYSIRFVLGLSTIKQALAVAKNLSAKGVVFYMDPYVLGFQINPTPMDMPGIIIPSAEDSKVLLKYYNSSLVRDGTTKEIVRFGAVAAIAGGQNANFSNRAPKIMYYSARGPDPQDSLFNDADILKPNLVAPGNSIWGAWSSAATESTEFEGESFAMMSGTSMAAPHVAGVAALVKQKFRKFSPSAIASALSTTSVLFDNKGEAIMAQRAYANPDQTISPATPFDMGNGFVNATAALDPGLIFDTSFEDYMSFLCGINGSAPVVFNYTGTNCLRNNATISGSDLNLPSITVSKLNNTRTVQRLMTNIAGNETYTVSLITPFDVLINVSPTQFSIASGETKLLSVILTAKRNSSISSFGGIKLLGNAGHIVRIPVSVTVKIASKQ,failed
2,MNYPKAILLSLALLAMHSLNAEVVTYPAGVGVKTLNDFSVEVRQGSGPWLPVDVYPVKVDRVDEKGHNVEVASIAYFDFDGMVDVRVISNKERVNSVRVRPLSYKITPDCVGDTVTFSLSRPRNLSVEVNGDIFHNLHLFANPIDKFRPSDKEIQRALKKKKGSNLIYFGPGVHNLPNDTLFVPSGTTVYIDGGARVYGNIFTEGAHDVNIFGRGEVHPDGRGAGVWVRRSKNVRIDGIVVSQLPIGQCDSVELTNVKSISYYGWGDGMDVFSSSNVILDGVFCRNSDDCAAVYASTQGFKGGSNNVLVKNATLWADVAHPINIGGHGDPNGMDTVQNVTFRNIDILDQAEKQIDYQGCLAINPGDNTLVRNITFENIRIEDFRNGQLVNFRISFNPKYCVSTGRGIQNVLVKDVTYNGSGENLSIIAGYDENHKISGIRFVNLVVNGRKITDDMPGKPKWYKTGDMAGIFVGEHVENLSFE,failed
3,MYALISLEEDPSLLRYGYLSQDNVGDVRREVSKLCGELRPHALALVTSFGIPDSFLSPIAFNWVEANTWSSV,failed
4,MTIVGLKKTYLGLIDKKTGKIIAGPEGLTTDGLYMSNPKDLGTASANITNIAAAGTQKFGDNGLVDVVSSKSFPQVAAVWNNLPFDIKAKIKGEVSDKKGGYVQSQDLPQVALIIESELIDRSHSIFYAFGNGHMTETALNIQTDNAAQNRVEDALTYQSLAFEAWNNQGMKTFNSADSGFDKTAMLKEVMGGYAASGLGVLEHHHHHH,failed
5,SLPIASTATQMGSNKTRIFARQPAKAPPPLAWLSRPRDPRATAIAAAGQQSSRRVSKRELESHGSATDAWTAIHGVVYDITAYFRFHPGGAEILFIEAAGKDSTAVFDEMHPWVNVAWLLKDYRIGLYAPESEDDGGDDDDDDRTMTSPE,not failed
6,MEKMLSTYIEEAMEFYAIGKGADFKAIIEKGIASCMTTYSTYDRELYKAYALLATYLSNHAFKIIKSRPAFQAMAINCFDQLDSLRQQHDPHLQVTKGFLWMLSSSRAQDADALLISVLRNHPKNILALIGRACLAYNRQDYIGALGYFKSVLLIQPQGMADVWVGIGHCFWKMGELEKAQLSFQIALEHNGQCLNAALALALVKFEHNDEQSYQDGKMLLTAAYKENNKNPDLLSILAGMYYADGNHKLVWSFAGNAIKFTANKHIESRNYFQIAKSYHATGQFESAKKYYLLSAKSAPDGYILPLVGVAQMYLHEGELNRSKAFLESFLTSEPDEPVVMDLLAKIYLEYKCPEKIDKAIEMLVKVVESASYHQNTNSWLNLAFAYEQKRLWAHGVNAYQKAIDIYLSQGHQIPIEWLNNLASSQLMAKMPEKALNTLDDALSKCRVMNSDNKTTNLLSLQYNRGLVLEELHMFTLAAENYKSITKEYSSYHDCYLRLGVMAIQKNNHTQAIEHLKDILVEDNLNMTARTYMGDCFKGLSLDKFATFNYNMILARQSKFTNTYVSMAMGNFCLEKLQNWIAEGNFRAARKQQEKALQCFGKILDCNPKNLWAANGIGAVLSSCNNLSAGGAIFKQIIECGNKCIPAIINSAHIALVSGQYRLAIQTYERCLKDHLPKNRVDVMHCLAKALYDNGDARKAKMWLLKVRHLVPHDPFVIFNLGLAIKKETEQALALPRPQLDELMGLDGLLKVAFKLFCHINLNHPKISVRVSAKYAEDCQNLMTELIAKKRQASESHAMEEDRVQLQKQRYRDHIEHQRQQELQREEEERVRRENLKIQRKEVLERTRKIISAPLAPDVPKKSAGNGRAKKNQENGDGKAKKSGPPKKKTRKRAAGKEQEDIEPLKKPKSKEFIDTDDDNSE,failed
7,MLELFMQPEAWVIFATLFALEVVLGVDNVVFISVLCERLPSHQRKLARNLGIGLAVLARIGLVFSITWIMQLTQPLFSVANHAVTGRDMIMILGGAFLLAKSLKELWSWLTHNETDHSTHVRTGLAVVLLQIVAVDAVFSMDSVITAVGLTSEVPLMVAAIIASALVMVMTAEKINNLVTRYPGFKTLALLFLVLLGGLLMAEGFAIHINKGYVYFAMAFGLALELCHIQLKNKQRRTIQRIRPMHDVAT,failed
8,MCSALVVAAPHSGSGKTTVTAAIARYHRVQGRKVTVFKVGPDFIDPMILRQASGELVYQLDLWLVGEQGCRALLHRAAMDSDLILIEGVMGLFDGTPSSADLAKYFNIPVLGVIDAKAMAQTFAAVTFGLAKFCEDLPFSGVIANRVNTERHAELLSVSLPKAFRFYGRIPKDDTITLPERHLGLVQAQELSDIDVQLDKAASHIANTGLTELPSQVEFFAQEDDNQENIIEGALAGTRIIIIRDSAFSFIYAANIAFLTQTGAELIYCSAMADVHLPDGDILYIPGGYPELYAEQLMNNVTFLSDIRAFSASNKPIVAECGGMLYLLEQLTDMEGQQFSMLGLMPGKATMQKKLAAIGSQWVPLPSFADAAEDSADNIMRGHSFHYSCAEIELEPSSQTTHHPSERAGEYVYQHNNILASYMHWYFPSNPSLTLRIFDKARYLLEHHHHHH,not failed
9,METSRVEEWFERGVEALGHDQVYLARSCFEHVARVNQHPAASSYLALCQAKTRGKFSDAIALARESIAREPHNPLLYQNLGRIYQLAGMRMDAVEVLREGVRRGAGEEAVAELNRIGTRKQPPFRRLHRNHPLNKYVGKLLARLRLR,failed
10,MNINEKAIEMFEQNKYEEAMELFQQAVHKSRDVQSLNNLAWMYFYEEENDEKALELIREVVKLNPSSYFPYNILGEIYIKQKKWEEAKEVLQKSISIQPSDEAYHNVAVAHYNLGELEKASDFFLRVAGDSDYIMYSYVKCLIDLERTTEAKEKLDTFNRESDNFLGEINVADLYVELNCYKEAIEWFEKGYKECWKSPNWIGRFVYALYKTNNFSRINEVIRECIEAKTAEIEDVQNEEVEENWTENDKKELIEEYTEENNCYKTMVERIKSGYVPGLEFETDYIGACYLFGCKRHNHLEYEK,failed
11,MSVTSRYRDAWEGFWNEASGDRGAVFWDAEPTLTAGRHLAHFEPHLTDAALPLIDLGCGNGTQTRYFAERFPHVVGADLSAAALAHARHADPGGLAAYRQLDAADKAEAQALHAELGDANVYVRGVLHQCEPDDRQPLADALAALLGERGRAFLVEPSQAAKTVLMGLAQGPAGPPAKLAPVLRHGLTPGAVPDEAVPEYLRAAGLTVLASGELPLVTTEYTADGTRIELPSAWVVAGTA,failed
12,MGLMKFQLFIQPKLDVLQGNIVEYEILLRDDSAVPRFPLSELEAVLADEELYLAFSEWFSEAFLDVLKKYPNDRFAINIAPQQLFYIETLHWLDKLKSESHRITVEMTEDIFDVPGHKRHLNANDKNAFILNKIKVIHGLGYHIAIDDVSCGLNSLERVMSYLPYIIEIKFSLIHFKNIPLEDLLLFIKAWANFAQKNKLDFVVEGIETKETMTLLESHGVSIFQGYLVNKPFPV,not failed
13,MFSGCVERSTRVLQDQEGDTVTSSPAGNKLPNINGLRDSNPRHSLGYRVQHRARTVVASVIVAMLVFAGTAAAATWLDVDNVIQHQKVDVIGQGSVSAEPTIIDPNSGKPIEILLLGQDSRDGEGNQAIGGDMTGNHQADTAMVLQISADRSAINLVSIPRDSLVDVPQCETSKGTIPAQYGVMFNSIFAGAYQTGGDLASAASCTLNAVNSLTGLNIQNFIVVDFAGLVKMIDAIGGVDICVPQDIDDPYSTLQLSKGMQHLDGTQATQYARTRYTLGDGSDTARTTRQQYLIKQLMSEALSKNLFTDTAQLYQLAKSALESLNISEGMADTAALVGLAMSLKNFNMSHLYTQTVPVVAAPSDPNRSVWADNADEVWAKMREGKSLFESTETNATSTDSTTTDGTTESQNTDENSGEQAQSTETPDATTGLITRADGTLIDPNTGGTVDPEDGSIHDATTGQYIGIADRYLNATVCAVPAKN,failed
14,MPVRVSLELLRVGHCRHCERMVRADGHWHAVEFPALSVLIRHPQRGALLYDTGYAAHFFRATDAWPERLYRLTTPVRLPAHETLGAQLSKRGVALDDIAWCLISHFHADHVGGLRDLPNARFMCSRADHQQLRSCSRVGGLRRALLPQLLPDDFDQRLQFADQAPQRALTGAWQGLGPAYDLFEDGSVLAVSLPGHVPGQMGLRVRDQHDREVLLCADAVWSSATWATLQWPAWPTRLLMHDWHAFQRTVHRLHALSHAHPELAILPSHCQPSLDRYQPEWR,failed
15,IQNVLSYITEHFSEGMSLKTLGNDFHINAVYLGQLFQKEMGEHFTDYLNRYRVNYAKEELLQTKDNLTIIAGKSGYTDMAYFYRQFKKHTGETPNRYRKIHQ,failed
16,MIRVGYLGPEATFTNMAVSRFFPEAEHVPYRTIPDCMDAAANGNVDYAVVPLENAIEGSVNITIDYLVHEQPLSIVGEITVPIQQHLLVHPQYAEVWEEVYAVHSHPHAIAQCHKFLNEELKGITARDMTSTSAAAQYVKEHPEEKIAAIANEAAAEKYGLTIVRRSIHTHKNNHTRFLVLHKKKKAILSNNGENRGEKTTLMITLPADYAGALYQVLSAFAWRKLNLSKIESRPMKTGLGNYFFLIDVDKAYDDVLLPGVTMELEALGFSVTVLGSYSSYWL,failed
17,MQNTIIQKAVNKDLNSILEITKDALNAMKTMNFHQWDENYPNEIVFQEDIQAQELYVFKENDEILGFICINEKFKPEFYKQVIFNKNYDDKAFYLHRLAVKQNAKGKGVAQKLLNFCENFALENHKASLRADTHSKNFPMNSLFKKLDFNFCGNFDIPNYQDPFLAYEKILNQKAF,not failed
18,LERDEQIRLQDDFLFRSQFNIGNIGIAITGIDQKWIKVNPRLCQMLKYSEDELLHMTWKQLTHPDDLDADVAKFEQMLAGNIDNYELDKRFIAKNGSLVYTHMTVACKRTNHQVLLVISGYLDVTAQTLADRE,failed
19,MTIEKKKNKIIFTRTFSAPINKVFDAYTKRELFEQWFHPQDASVTVYDFNATKGGNAFYAIQAPQMTSYTIAEYLQVDAPYYIEYLDYFATSKGEKDTSMPGMHITLNFEEVKGKTTVTSTSTFPTESAAQQAIDMGVETGMNSTLNQLEKLLNQKLEHHHHHH,not failed
20,MSAKRVFEKFDKNKDGKLSLDEFREVALAFSPYFTQEDIVKFFEEIDVDGNGELNADEFTSCIEKML,not failed
21,MLFKTIFYQKLQKKVTTLFNLETERVIREIENLNKNNPKVIFQAPEGLKLKVEKEIEKIKQYFKQKNINIEIYLWGNTCFGACDLIDNHVKNLNVDLIIHYGHEKLSYANPEIKTLFIPAYHIFNKDEEEKILNDIKNFIEKHKSGGKKVAIATTIQYKKLLKDFNPSIILGCRGEVKEGDVILFVGTGRFHPLMIAYKYQKEVFIYNPLSKCFDKISEEEINKFIKKRILAISKLLLNKPKKVGVVLSTKKGQCRKRVFDEIIKLLEENDVNYLPILVDNISPDILFYDVDCYIIVACPRIVLDDYILYKKPIYTPEEFKLFLKNSFKYKFDEIKEDDFLEHHHHHH,not failed
